Read-outs that look alike come from different tables or passages of the source. Positions of bridges follow the written chain, without caps; N, C: chain ends. Non-standard residues stand in square brackets, D forms with d. Groups on a side chain read outwards from the residue. Primed or numbered codes have the meaning given here. No end group written: not given here. *: point of attachment. PEG 40 kDa″ = 40 kDa polyethylene glycol; Stearoyl = CCCCCCCCCCCCCCCCCC(=O)*; Palmitoyl = CCCCCCCCCCCCCCCC(=O)*; Aib = CC(C)(N)C(=O)O
B1: E16 GLP(17-29)-NH2 E24, K28 Lactam (peptide)
peptide: HSQGTFTSDYSKYLDEQAAKEFIEWLVKG-NH2
modifications: lactam 24-28; N-terminus assumed
SMILES: CC[C@H](C)[C@H](NC(=O)[C@H](Cc1ccccc1)NC(=O)[C@H](CCC(=O)O)NC(=O)[C@H](CCCCN)NC(=O)[C@H](C)NC(=O)[C@H](C)NC(=O)[C@H](CCC(N)=O)NC(=O)[C@H](CCC(=O)O)NC(=O)[C@H](CC(=O)O)NC(=O)[C@H](CC(C)C)NC(=O)[C@H](Cc1ccc(O)cc1)NC(=O)[C@H](CCCCN)NC(=O)[C@H](CO)NC(=O)[C@H](Cc1ccc(O)cc1)NC(=O)[C@H](CC(=O)O)NC(=O)[C@H](CO)NC(=O)[C@@H](NC(=O)[C@H](Cc1ccccc1)NC(=O)[C@@H](NC(=O)CNC(=O)[C@H](CCC(N)=O)NC(=O)[C@H](CO)NC(=O)[C@@H](N)Cc1c[nH]cn1)[C@@H](C)O)[C@@H](C)O)C(=O)N[C@H]1CCC(=O)NCCCC[C@@H](C(=O)NCC(N)=O)NC(=O)[C@H](C(C)C)NC(=O)[C@H](CC(C)C)NC(=O)[C@H](Cc2c[nH]c3ccccc23)NC1=O

Experiments:
Assay in all cases: cell-based or functional assay
GLP-1 receptor [1] = biological target: T1, GLP-1 receptor (UniProt P43220 24-463, limits assumed)
glucagon receptor [2] = biological target: T2, glucagon receptor (UniProt P47871 26-477, limits assumed)
GLP-1 receptor [3] = biological target: T1, GLP-1 receptor; remark: listed apart in the source
glucagon receptor [4] = biological target: T2, glucagon receptor; remark: listed apart in the source
GLP-1 receptor [5] = biological target: T1, GLP-1 receptor; remark: listed apart in the source
glucagon receptor [6] = biological target: T2, glucagon receptor; remark: listed apart in the source
GLP-1 receptor [7] = biological target: T1, GLP-1 receptor; remark: listed apart in the source
glucagon receptor [8] = biological target: T2, glucagon receptor; remark: listed apart in the source
GLP-1 receptor [9] = biological target: T1, GLP-1 receptor; remark: listed apart in the source
GLP-1 receptor [10] = biological target: T1, GLP-1 receptor; remark: listed apart in the source

T2 sequence (P47871 26-477 limits assumed): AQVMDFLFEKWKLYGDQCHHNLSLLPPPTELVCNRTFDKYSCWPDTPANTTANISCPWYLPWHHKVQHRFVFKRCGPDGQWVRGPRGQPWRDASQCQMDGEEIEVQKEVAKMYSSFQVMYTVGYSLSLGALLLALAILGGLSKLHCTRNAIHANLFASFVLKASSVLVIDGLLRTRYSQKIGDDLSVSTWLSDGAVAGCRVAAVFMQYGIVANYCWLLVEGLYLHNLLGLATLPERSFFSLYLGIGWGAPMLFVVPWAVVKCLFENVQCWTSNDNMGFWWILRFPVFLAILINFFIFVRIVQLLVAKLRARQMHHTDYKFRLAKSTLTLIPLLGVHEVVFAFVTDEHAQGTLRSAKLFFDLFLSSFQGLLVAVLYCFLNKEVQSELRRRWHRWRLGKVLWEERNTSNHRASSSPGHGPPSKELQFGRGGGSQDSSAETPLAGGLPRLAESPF

Binder | EC50 (GLP-1 receptor [1]) [nM] | EC50 (glucagon receptor [2]) [nM] | EC50 (GLP-1 receptor [3]) [nM] | EC50 (glucagon receptor [4]) [nM] | cAMP induction EC50 (GLP-1 receptor [5]) [nM] | cAMP induction EC50 (glucagon receptor [6]) [nM] | other results
HSQGTFTSDK([Trp-Palmitoyl])SKYLDERRAKDFVC(PEG 40 kDa)WLMNT-NH2 [E16 K20-glucagon-NH2 with K10-W-C16 and C24-40K PEG (SEQ ID NO: 546)] | 0.23 | 0.52 | 0.23 | 0.54 |  |  | 
HSQGTFTSDYSKYLDEQAAKEFIAWLVKG-NH2 [E16 GLP(17-29)-NH2] |  |  |  |  | 0.01 | 0.46 | 
B1 |  |  |  |  | 0.007 | 0.16 | 
HSQGTFTSDK(Stearoyl)SKYLDERRAKDFVC(PEG 40 kDa)WLMNT-NH2 [E16 K20-glucagon-NH2 with K10-C18 and C24-40K PEG (SEQ ID NO: 547)] | 0.15 | 0.84 | 0.15 | 0.84 |  |  | 
HSQGTFTSDK([Glu-Palmitoyl])SKYLDERRAKDFVQWLMNT-NH2 [Peptide D (Example 22)] |  |  |  |  |  |  | EC50 (GLP-1 receptor [7]): 0.056 nM; EC50 (glucagon receptor [8]): 0.062 nM
HSQGTFTSDK(Stearoyl)SKYLDERRAKDFVQWLMNT-NH2 [E16 K20-glucagon-NH2 with K10-C18] |  |  |  |  |  |  | EC50 (GLP-1 receptor [9]): 0.03 nM; EC50 (GLP-1 receptor [7]): 0.032 nM
H[Aib]QGTFTSDK(Stearoyl)SKYLDEQAAKEFIC(PEG 40 kDa″)WLMNT-NH2 [C18 acylated Glucagon analog peptide (SEQ ID NO: 537)] |  |  |  | 8.55 |  |  | EC50 (GLP-1 receptor [10]): 0.0118 nM
HSQGTFTSDYSKYLDEQAAKEFIEWLVKG-NH2 [E16 GLP(17-29)-NH2 E24, K28] |  |  |  |  | 0.007 | 0.23 | 
HSQGTFTSDK([Trp-Palmitoyl])SKYLDERRAKDFVQWLMNT-NH2 [E16 K20-glucagon-NH2 with K10-W-C16] |  |  |  |  |  |  | EC50 (GLP-1 receptor [9]): 0.05 nM
HSQGTFTSDK([Trp-Stearoyl])SKYLDERRAKDFVC(PEG 40 kDa)WLMNT-NH2 [E16 K20-glucagon-NH2 with K10-W-C18 and C24-40K PEG (SEQ ID NO: 548)] | 1.64 | 1.3 | 1.64 | 1.29 |  |  | 

Reference: patent publication US20120172295A1 (INDIANA UNIVERSITY RESEARCH AND TECHNOLOGY, published 2012)
